In patent US20220324969A1 (MYTHIC THERAPEUTICS, published 2022):

target: CD33 (Sino Biological, Cat #12238-H08H) (UniProt P20138 18-259); experiment: BLI, IgG captured on anti-human Fc sensor, 50 nM CD33, pH 7.4 vs pH 5.4
Sequence (P20138 18-259 limits assumed): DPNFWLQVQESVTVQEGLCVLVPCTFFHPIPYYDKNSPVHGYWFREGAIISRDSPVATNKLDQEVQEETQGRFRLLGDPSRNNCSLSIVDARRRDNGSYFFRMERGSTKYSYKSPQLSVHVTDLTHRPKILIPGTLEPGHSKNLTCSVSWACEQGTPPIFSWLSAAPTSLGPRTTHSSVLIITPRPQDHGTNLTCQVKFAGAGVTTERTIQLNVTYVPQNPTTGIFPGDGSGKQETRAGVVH

Binder | binding result
MYT1604 (antibody, V domains shown, IgG; gemtuzumab VL variant #15 (T38H)) VH: EVQLVQSGAEVKKPGSSVKVSCKASGYTITDSNIHWVRQAPGQSLEWIGYIYPYNGGTDYNQKFKNRATLTVDNPTNTAYMELSSLRSEDTDFYYCVNGNPWLAYWGQGTLVTVSS VL: DIQLTQSPSTLSASVGDRVTITCRASESLDNYGIRFLHWFQQKPGKAPKLLMYAASNQGSGVPSRFSGSGSGTEFTLTISSLQPDDFATYYCQQTKEVPWSFGQGTKVEVK | binds
MYT1615 (antibody, V domains shown, IgG; gemtuzumab VL variant #26 (K96H)) VH: EVQLVQSGAEVKKPGSSVKVSCKASGYTITDSNIHWVRQAPGQSLEWIGYIYPYNGGTDYNQKFKNRATLTVDNPTNTAYMELSSLRSEDTDFYYCVNGNPWLAYWGQGTLVTVSS VL: DIQLTQSPSTLSASVGDRVTITCRASESLDNYGIRFLTWFQQKPGKAPKLLMYAASNQGSGVPSRFSGSGSGTEFTLTISSLQPDDFATYYCQQTHEVPWSFGQGTKVEVK | binds
MYT1613 (antibody, V domains shown, IgG; gemtuzumab VL variant #24 (Q94H)) VH: EVQLVQSGAEVKKPGSSVKVSCKASGYTITDSNIHWVRQAPGQSLEWIGYIYPYNGGTDYNQKFKNRATLTVDNPTNTAYMELSSLRSEDTDFYYCVNGNPWLAYWGQGTLVTVSS VL: DIQLTQSPSTLSASVGDRVTITCRASESLDNYGIRFLTWFQQKPGKAPKLLMYAASNQGSGVPSRFSGSGSGTEFTLTISSLQPDDFATYYCQHTKEVPWSFGQGTKVEVK | binds
MYT1610 (antibody, V domains shown, IgG; gemtuzumab VL variant #21 (G59H)) VH: EVQLVQSGAEVKKPGSSVKVSCKASGYTITDSNIHWVRQAPGQSLEWIGYIYPYNGGTDYNQKFKNRATLTVDNPTNTAYMELSSLRSEDTDFYYCVNGNPWLAYWGQGTLVTVSS VL: DIQLTQSPSTLSASVGDRVTITCRASESLDNYGIRFLTWFQQKPGKAPKLLMYAASNQHSGVPSRFSGSGSGTEFTLTISSLQPDDFATYYCQQTKEVPWSFGQGTKVEVK | binds
MYT1607 (antibody, V domains shown, IgG; gemtuzumab VL variant #18 (S56H)) VH: EVQLVQSGAEVKKPGSSVKVSCKASGYTITDSNIHWVRQAPGQSLEWIGYIYPYNGGTDYNQKFKNRATLTVDNPTNTAYMELSSLRSEDTDFYYCVNGNPWLAYWGQGTLVTVSS VL: DIQLTQSPSTLSASVGDRVTITCRASESLDNYGIRFLTWFQQKPGKAPKLLMYAAHNQGSGVPSRFSGSGSGTEFTLTISSLQPDDFATYYCQQTKEVPWSFGQGTKVEVK | binds
MYT1617 (antibody, V domains shown, IgG; gemtuzumab VL variant #28 (V98H)) VH: EVQLVQSGAEVKKPGSSVKVSCKASGYTITDSNIHWVRQAPGQSLEWIGYIYPYNGGTDYNQKFKNRATLTVDNPTNTAYMELSSLRSEDTDFYYCVNGNPWLAYWGQGTLVTVSS VL: DIQLTQSPSTLSASVGDRVTITCRASESLDNYGIRFLTWFQQKPGKAPKLLMYAASNQGSGVPSRFSGSGSGTEFTLTISSLQPDDFATYYCQQTKEHPWSFGQGTKVEVK | binds
MYT1605 (antibody, V domains shown, IgG; gemtuzumab VL variant #16 (A54H)) VH: EVQLVQSGAEVKKPGSSVKVSCKASGYTITDSNIHWVRQAPGQSLEWIGYIYPYNGGTDYNQKFKNRATLTVDNPTNTAYMELSSLRSEDTDFYYCVNGNPWLAYWGQGTLVTVSS VL: DIQLTQSPSTLSASVGDRVTITCRASESLDNYGIRFLTWFQQKPGKAPKLLMYHASNQGSGVPSRFSGSGSGTEFTLTISSLQPDDFATYYCQQTKEVPWSFGQGTKVEVK | binds
MYT1609 (antibody, V domains shown, IgG; gemtuzumab VL variant #20 (Q58H)) VH: EVQLVQSGAEVKKPGSSVKVSCKASGYTITDSNIHWVRQAPGQSLEWIGYIYPYNGGTDYNQKFKNRATLTVDNPTNTAYMELSSLRSEDTDFYYCVNGNPWLAYWGQGTLVTVSS VL: DIQLTQSPSTLSASVGDRVTITCRASESLDNYGIRFLTWFQQKPGKAPKLLMYAASNHGSGVPSRFSGSGSGTEFTLTISSLQPDDFATYYCQQTKEVPWSFGQGTKVEVK | binds
MYT1612 (antibody, V domains shown, IgG; gemtuzumab VL variant #23 (Q93H)) VH: EVQLVQSGAEVKKPGSSVKVSCKASGYTITDSNIHWVRQAPGQSLEWIGYIYPYNGGTDYNQKFKNRATLTVDNPTNTAYMELSSLRSEDTDFYYCVNGNPWLAYWGQGTLVTVSS VL: DIQLTQSPSTLSASVGDRVTITCRASESLDNYGIRFLTWFQQKPGKAPKLLMYAASNQGSGVPSRFSGSGSGTEFTLTISSLQPDDFATYYCHQTKEVPWSFGQGTKVEVK | binds
MYT1620 (antibody, V domains shown, IgG; gemtuzumab VL variant #31 (S101H)) VH: EVQLVQSGAEVKKPGSSVKVSCKASGYTITDSNIHWVRQAPGQSLEWIGYIYPYNGGTDYNQKFKNRATLTVDNPTNTAYMELSSLRSEDTDFYYCVNGNPWLAYWGQGTLVTVSS VL: DIQLTQSPSTLSASVGDRVTITCRASESLDNYGIRFLTWFQQKPGKAPKLLMYAASNQGSGVPSRFSGSGSGTEFTLTISSLQPDDFATYYCQQTKEVPWHFGQGTKVEVK | binds
MYT1608 (antibody, V domains shown, IgG; gemtuzumab VL variant #19 (N57H)) VH: EVQLVQSGAEVKKPGSSVKVSCKASGYTITDSNIHWVRQAPGQSLEWIGYIYPYNGGTDYNQKFKNRATLTVDNPTNTAYMELSSLRSEDTDFYYCVNGNPWLAYWGQGTLVTVSS VL: DIQLTQSPSTLSASVGDRVTITCRASESLDNYGIRFLTWFQQKPGKAPKLLMYAASHQGSGVPSRFSGSGSGTEFTLTISSLQPDDFATYYCQQTKEVPWSFGQGTKVEVK | binds
MYT1616 (antibody, V domains shown, IgG; gemtuzumab VL variant #27 (E97H)) VH: EVQLVQSGAEVKKPGSSVKVSCKASGYTITDSNIHWVRQAPGQSLEWIGYIYPYNGGTDYNQKFKNRATLTVDNPTNTAYMELSSLRSEDTDFYYCVNGNPWLAYWGQGTLVTVSS VL: DIQLTQSPSTLSASVGDRVTITCRASESLDNYGIRFLTWFQQKPGKAPKLLMYAASNQGSGVPSRFSGSGSGTEFTLTISSLQPDDFATYYCQQTKHVPWSFGQGTKVEVK | binds
MYT1606 (antibody, V domains shown, IgG; gemtuzumab VL variant #17 (A55H)) VH: EVQLVQSGAEVKKPGSSVKVSCKASGYTITDSNIHWVRQAPGQSLEWIGYIYPYNGGTDYNQKFKNRATLTVDNPTNTAYMELSSLRSEDTDFYYCVNGNPWLAYWGQGTLVTVSS VL: DIQLTQSPSTLSASVGDRVTITCRASESLDNYGIRFLTWFQQKPGKAPKLLMYAHSNQGSGVPSRFSGSGSGTEFTLTISSLQPDDFATYYCQQTKEVPWSFGQGTKVEVK | binds
MYT1614 (antibody, V domains shown, IgG; gemtuzumab VL variant #25 (T95H)) VH: EVQLVQSGAEVKKPGSSVKVSCKASGYTITDSNIHWVRQAPGQSLEWIGYIYPYNGGTDYNQKFKNRATLTVDNPTNTAYMELSSLRSEDTDFYYCVNGNPWLAYWGQGTLVTVSS VL: DIQLTQSPSTLSASVGDRVTITCRASESLDNYGIRFLTWFQQKPGKAPKLLMYAASNQGSGVPSRFSGSGSGTEFTLTISSLQPDDFATYYCQQHKEVPWSFGQGTKVEVK | binds

Next, values leading:

binding result | Binder
binds | MYT1619 (antibody, V domains shown, IgG; gemtuzumab VL variant #30 (W100H)) VH: EVQLVQSGAEVKKPGSSVKVSCKASGYTITDSNIHWVRQAPGQSLEWIGYIYPYNGGTDYNQKFKNRATLTVDNPTNTAYMELSSLRSEDTDFYYCVNGNPWLAYWGQGTLVTVSS VL: DIQLTQSPSTLSASVGDRVTITCRASESLDNYGIRFLTWFQQKPGKAPKLLMYAASNQGSGVPSRFSGSGSGTEFTLTISSLQPDDFATYYCQQTKEVPHSFGQGTKVEVK
binds | MYT1611 (antibody, V domains shown, IgG; gemtuzumab VL variant #22 (S60H)) VH: EVQLVQSGAEVKKPGSSVKVSCKASGYTITDSNIHWVRQAPGQSLEWIGYIYPYNGGTDYNQKFKNRATLTVDNPTNTAYMELSSLRSEDTDFYYCVNGNPWLAYWGQGTLVTVSS VL: DIQLTQSPSTLSASVGDRVTITCRASESLDNYGIRFLTWFQQKPGKAPKLLMYAASNQGHGVPSRFSGSGSGTEFTLTISSLQPDDFATYYCQQTKEVPWSFGQGTKVEVK
binds | MYT1213 (antibody, V domains shown, IgG; IMGN779 VH variant #1 (G26H)) VH: QVQLQQPGAEVVKPGASVKMSCKASHYTFTSYYIHWIKQTPGQGLEWVGVIYPGNDDISYNQKFQGKATLTADKSSTTAYMQLSSLTSEDSAVYYCAREVRLRYFDVWGQGTTVTVSS VL: EIVLTQSPGSLAVSPGERVTMSCKSSQSVFFSSSQKNYLAWYQQIPGQSPRLLIYWASTRESGVPDRFTGSGSGTDFTLTISSVQPEDLAIYYCHQYLSSRTFGQGTKLEIK
binds | MYT1215 (antibody, V domains shown, IgG; IMGN779 VH variant #3 (T28H)) VH: QVQLQQPGAEVVKPGASVKMSCKASGYHFTSYYIHWIKQTPGQGLEWVGVIYPGNDDISYNQKFQGKATLTADKSSTTAYMQLSSLTSEDSAVYYCAREVRLRYFDVWGQGTTVTVSS VL: EIVLTQSPGSLAVSPGERVTMSCKSSQSVFFSSSQKNYLAWYQQIPGQSPRLLIYWASTRESGVPDRFTGSGSGTDFTLTISSVQPEDLAIYYCHQYLSSRTFGQGTKLEIK
binds | MYT1216 (antibody, V domains shown, IgG; IMGN779 VH variant #4 (F29H)) VH: QVQLQQPGAEVVKPGASVKMSCKASGYTHTSYYIHWIKQTPGQGLEWVGVIYPGNDDISYNQKFQGKATLTADKSSTTAYMQLSSLTSEDSAVYYCAREVRLRYFDVWGQGTTVTVSS VL: EIVLTQSPGSLAVSPGERVTMSCKSSQSVFFSSSQKNYLAWYQQIPGQSPRLLIYWASTRESGVPDRFTGSGSGTDFTLTISSVQPEDLAIYYCHQYLSSRTFGQGTKLEIK
binds | MYT1214 (antibody, V domains shown, IgG; IMGN779 VH variant #2 (Y27H)) VH: QVQLQQPGAEVVKPGASVKMSCKASGHTFTSYYIHWIKQTPGQGLEWVGVIYPGNDDISYNQKFQGKATLTADKSSTTAYMQLSSLTSEDSAVYYCAREVRLRYFDVWGQGTTVTVSS VL: EIVLTQSPGSLAVSPGERVTMSCKSSQSVFFSSSQKNYLAWYQQIPGQSPRLLIYWASTRESGVPDRFTGSGSGTDFTLTISSVQPEDLAIYYCHQYLSSRTFGQGTKLEIK
binds | MYT1217 (antibody, V domains shown, IgG; IMGN779 VH variant #5 (T30H)) VH: QVQLQQPGAEVVKPGASVKMSCKASGYTFHSYYIHWIKQTPGQGLEWVGVIYPGNDDISYNQKFQGKATLTADKSSTTAYMQLSSLTSEDSAVYYCAREVRLRYFDVWGQGTTVTVSS VL: EIVLTQSPGSLAVSPGERVTMSCKSSQSVFFSSSQKNYLAWYQQIPGQSPRLLIYWASTRESGVPDRFTGSGSGTDFTLTISSVQPEDLAIYYCHQYLSSRTFGQGTKLEIK
